The target of test [1] is CPSF30 (full-length, wild type)–hFip1 (residues 79–200) complex (human, UniProt O95639-2 1-244; Q6UN15 79-200). Put plainly: SEC. For orientation: SEC sorts molecules by how far they enter the pores of the column.
In test [2] the target is CPSF30 (full-length, Y127A)–hFip1 (residues 79–200) complex (human, UniProt O95639-2 1-244; Q6UN15 79-200, Y127A). Put plainly: SEC.
Test [3] concerns the target CPSF30 (full-length, Y151A)–hFip1 (residues 79–200) complex (human, UniProt O95639-2 1-244; Q6UN15 79-200, Y151A). Put plainly: SEC.
The target in test [4] is human CPSF30 full-length (residues 1–244) Y127A mutant (human, UniProt O95639-2 1-244, Y127A). Description: SEC.
For test [5], the target named is human CPSF30 full-length (residues 1–244) Y151A mutant (human, UniProt O95639-2 1-244, Y151A). Description: SEC.
Test [6] concerns the target human CPSF30 ZF4–ZF5 (residues 114–173) (human, UniProt O95639-2 114-173). Description: crystal structure.
The target in test [7] is T1, human CPSF30 ZF2–C terminus (residues 62–244), wild type (human, UniProt O95639-2 62-244). Put plainly: SEC.
Test [8] concerns the target T2, human CPSF30 (residues 62–244) Y127A mutant (human, UniProt O95639-2 62-244, Y127A). Description: SEC.
Test [9] has as its target T3, human CPSF30 (residues 62–244) Y151A mutant (human, UniProt O95639-2 62-244, Y151A). Description: SEC.
In test [10] the target is T1, human CPSF30 ZF2–C terminus (residues …). Put plainly: fluorescence polarisation. A general note: In fluorescence polarisation assays a small probe gives low polarisation when free and higher when bound to something large.
Test [11] has as its target T2, human CPSF30 (residues 62–244) Y127A …. Put plainly: fluorescence polarisation.
Test [12] has as its target T3, human CPSF30 (residues 62–244) Y151A …. Put plainly: fluorescence polarisation.

Ends that are not written are not given here. * marks the point of attachment. Fluorescein(5-Mal) = O=C1OC2(c3ccc(O)cc3Oc3cc(O)ccc32)c2ccc(N3C(=O)CC(*)C3=O)cc21

B1: catalytic module of human poly(A) polymerase α (residues 1–524) (domain or fragment, UniProt P51003 1-524, looked up)
chain: MPFPVTTQGSQQTQPPQKHYGITSPISLAAPKETDCVLTQKLIETLKPFGVFEEEEELQRRILILGKLNNLVKEWIREISESKNLPQSVIENVGGKIFTFGSYRLGVHTKGADIDALCVAPRHVDRSDFFTSFYDKLKLQEEVKDLRAVEEAFVPVIKLCFDGIEIDILFARLALQTIPEDLDLRDDSLLKNLDIRCIRSLNGCRVTDEILHLVPNIDNFRLTLRAIKLWAKRHNIYSNILGFLGGVSWAMLVARTCQLYPNAIASTLVHKFFLVFSKWEWPNPVLLKQPEECNLNLPVWDPRVNPSDRYHLMPIITPAYPQQNSTYNVSVSTRMVMVEEFKQGLAITDEILLSKAEWSKLFEAPNFFQKYKHYIVLLASAPTEKQRLEWVGLVESKIRILVGSLEKNEFITLAHVNPQSFPAPKENPDKEEFRTMWVIGLVFKKTENSENLSVDLTYDIQSFTDTVYRQAINSKMFEVDMKIAAMHVKRKQLHQLLPNHVLQKKKKHSTEGVKLTALNDSSLD
As to B1, the “stoichiometry N” value in test [1] was 2 PAP per CPSF30–hFip1 complex; in test [2] it was 1 PAP per CPSF30–hFip1 complex; in test [3], 1 PAP per CPSF30–hFip1 complex.

B2: hFip1 (residues 79–200) (domain or fragment, human, UniProt Q6UN15 79-200, looked up)
chain: TETEDDSDSDSDDDEDDVHVTIGDIKTGAPQYGSYGTAPVNLNIKTGGRVYGTTGTKVKGVDLDAPGSINGVPLLEVDLDSFEDKPWRKPGADLSDYFNYGFNEDTWKAYCEKQKRIRMGLE
As to B2, the “stoichiometry N” value in [4] and in test [5] was 1 hFip1 per CPSF30 throughout.

B3: hFip1 (residues 159–200) (domain or fragment, human, UniProt Q6UN15 159-200, looked up)
chain: SFEDKPWRKPGADLSDYFNYGFNEDTWKAYCEKQKRIRMGLE
Regarding B3, the “stoichiometry N” value in [6] came to 2 hFip1 per CPSF30; in test [7], 2 hFip1 per CPSF30; in test [8], 1 hFip1 per CPSF30; in test [9], 1 hFip1 per CPSF30.

B4: hFip1 (residues 159–200) S159C/C189S mutant, FAM-labeled (domain or fragment, human, UniProt Q6UN15 159-200, looked up)
chain: C(Fluorescein(5-Mal))FEDKPWRKPGADLSDYFNYGFNEDTWKAYSEKQKRIRMGLE
For B4, the Kd in test [10] worked out at 0.69 ± 0.31 nM; in test [11], 220 ± 32 nM; in [12], 1.8 ± 0.4 nM.

By stoichiometry N is commonly meant a count of units in the complex or per binding partner. By Kd is commonly meant the constant that tells how readily two partners part at equilibrium.
